These results are taken from paper PMC2871789, “Characterization of the Interaction and Cross-Regulation of Three Mycobacterium tuberculosis RelBE Modules”.

Data set [1] addresses RelJ;RelK (Mycobacterium tuberculosis …, UniProt P9WF25;P9WF09 1-91;1-85, |). The data set can be described thus: EMSA; 1.8-15 uM titration. The note with it: protein: recombinant;recombinant; tags: His or GST;His or GST; label: 5'-32P; blunt. (In general: A gel shift assay detects complexes by their altered migration in electrophoresis.)
The target of data set [2] is T1, RelJ (Mycobacterium tuberculosis H37Rv, UniProt P9WF25 1-91).
T1 sequence: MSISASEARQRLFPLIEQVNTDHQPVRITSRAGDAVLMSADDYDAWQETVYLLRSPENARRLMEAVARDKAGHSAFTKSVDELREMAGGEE
Put plainly: EMSA; 7.5 uM RelJ alone. As to conditions: protein: recombinant; tags: His or GST; chain copies: 2; label: 5'-32P; blunt.

The target in data set [3] is T2, RelB;RelE (Mycobacterium tuberculosis …, UniProt O50462;O50461 1-89;1-97, |).
T2 sequence 1: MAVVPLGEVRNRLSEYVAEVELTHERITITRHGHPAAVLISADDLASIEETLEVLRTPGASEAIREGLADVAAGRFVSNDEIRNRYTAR
T2 sequence 2: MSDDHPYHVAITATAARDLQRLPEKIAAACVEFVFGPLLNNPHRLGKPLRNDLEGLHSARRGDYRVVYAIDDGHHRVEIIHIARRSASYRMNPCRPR
Put plainly: EMSA; 1.8-15 uM titration. As to conditions: protein: recombinant;recombinant; tags: His (modified pET28a);His or GST; chain copies: 2;2; label: 5'-32P; blunt.

The target in data set [4] is T3, RelF;RelG (Mycobacterium tuberculosis …, UniProt O33347;O33348 1-93;1-87, |).
T3 sequence 1: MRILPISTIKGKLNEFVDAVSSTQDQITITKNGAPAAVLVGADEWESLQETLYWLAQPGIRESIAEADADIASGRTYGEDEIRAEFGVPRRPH
T3 sequence 2: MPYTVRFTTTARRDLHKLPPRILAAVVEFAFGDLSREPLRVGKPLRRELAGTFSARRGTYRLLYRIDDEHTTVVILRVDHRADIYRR
The data set can be described thus: EMSA. As to conditions: protein: recombinant;recombinant; tags: His or GST;His or GST; label: 5'-32P; blunt.

Sequence of RelJ;RelK (P9WF09 whole entry, one chain of several): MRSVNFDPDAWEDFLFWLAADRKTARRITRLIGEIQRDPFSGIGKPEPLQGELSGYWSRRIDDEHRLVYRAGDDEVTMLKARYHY

B1: 3357p7 (dsDNA)
DNA 1: CCACCGTACGGACAACTTGTACCATTGTGGTACAGATTATCCGTACATCTT
DNA 2: AAGATGTACGGATAATCTGTACCACAATGGTACAAGTTGTCCGTACGGTGG
For the molecule B1, the binding result in data set [1] and in data set [2] was “binds” each time.

B2: 1247p7 (dsDNA)
DNA 1: GGCGTTCGGCTCGGTAAGCCGATGCTCGGCG
DNA 2: CGCCGAGCATCGGCTTACCGAGCCGAACGCC
Take B2: in data set [3], the binding result is reported as “binds”.

B3: 2865p7 (dsDNA)
DNA 1: AAACCTGAGACGCCGCGCACAAAGTGCGAAACC
DNA 2: GGTTTCGCACTTTGTGCGCGGCGTCTCAGGTTT
Regarding B3, the binding result in data set [4] is “binds”.
